{"source": "patent US20130180016A1", "key": {"[1]": {"target": "putative receptor(s) on brush border membrane vesicles (BBMV) prepared from midguts of third instars of the western corn rootworm (Diabrotica virgifera virgifera LeConte) (Diabrotica virgifera virgifera)", "assay": "saturation radioligand binding to western corn rootworm BBMV (0.1 mg/ml), GraphPad Prism fit"}, "[2]": {"target": "putative receptor(s) on brush border membrane vesicles (BBMV) prepared from midguts of third instars of the western corn rootworm (Diabrotica virgifera virgifera LeConte) (Diabrotica virgifera virgifera)"}, "[3]": {"target": "putative receptor(s) on brush border membrane vesicles (BBMV) prepared from midguts of third instars of the western corn rootworm (Diabrotica virgifera virgifera LeConte) (Diabrotica virgifera virgifera)", "assay": "homologous competition, 5 nM 125I-Cry3Ba1 on western corn rootworm BBMV (0.1 mg/ml), unlabelled Cry3Ba1 (0-2,500 nM) as competitor"}}}
{"binder": "Cry35Ab1 chymotrypsin core (chymotrypsin-truncated Cry35Ab1 core protein) (protein, 125I-iodinated (Pierce Iodination Beads, Na125I) where used as the labelled ligand; unlabelled where used as competitor) MLDTNKVYEISNHANGLYAATYLSLDDSGVSLMNKNDDDIDDYNLKWFLFPIDDDQYIITSYAANNCKVWNVNNDKINVSTYSSTNSIQKWQIKANGSSYVIQSDNGKVLTAGTGQALGLIRLTDESSNNPNQQWNLTSVQTIQLPQKPIIDTKLKDYPKYSPTGNIDNGTSPQLMGWTLVPCIMVNDPNIDKNTQIKTTPYYILKKYQYWQRAVGSNVALRPHEKKSYTYEWGTEIDQKTTIINTLGFQINIDSGMKFDIPEVGGGTDEIKTQLNEELKIEYSHETKIMEKYQEQSEIDNPTDQSMNSIGFLTITSLELYRYNGSEIRIMQIQTSDNDTYNVTSYPNHQQALL", "values": [{"measurement": "Kd", "setting": "[1]", "value": 11.7, "unit": "nM"}, {"measurement": "binding site concentration Bmax", "setting": "[1]", "value": 0.78, "unit": "pmol/mg BBMV"}]}
{"binder": "mixture of Cry35Ab1+Cry34Ab1 (binary toxin) (protein, 125I-iodinated where the mixture holds the labelled ligand) chain 1: MLDTNKVYEISNHANGLYAATYLSLDDSGVSLMNKNDDDIDDYNLKWFLFPIDDDQYIITSYAANNCKVWNVNNDKINVSTYSSTNSIQKWQIKANGSSYVIQSDNGKVLTAGTGQALGLIRLTDESSNNPNQQWNLTSVQTIQLPQKPIIDTKLKDYPKYSPTGNIDNGTSPQLMGWTLVPCIMVNDPNIDKNTQIKTTPYYILKKYQYWQRAVGSNVALRPHEKKSYTYEWGTEIDQKTTIINTLGFQINIDSGMKFDIPEVGGGTDEIKTQLNEELKIEYSHETKIMEKYQEQSEIDNPTDQSMNSIGFLTITSLELYRYNGSEIRIMQIQTSDNDTYNVTSYPNHQQALL chain 2: MSAREVHIDVNNKTGHTLQLEDKTKLDGGRWRTSPTNVANDQIKTFVAESNGFMTGTEGTIYYSINGEAEISLYFDNPFAGSNKYDGHSNKSQYEIITQGGSGNQSHVTYTIQTTSSRYGHKS", "values": [{"measurement": "specific binding as percent of the total binding", "setting": "[2]", "value": 90, "unit": "%"}]}
{"binder": "Cry3Ba1 trypsin core (protein, 125I-iodinated (Pierce Iodination Beads, Na125I) where used as the labelled ligand; unlabelled where used as competitor) SQDRIRELFSQAESHFRNSMPSFAVSKFEVLFLPTYAQAANTHLLLLKDAQVFGEEWGYSSEDIAEFYQRQLKLTQQYTDHCVNWYNVGLNSLRGSTYDAWVKFNRFRREMTLTVLDLIVLFPFYDVRLYSKGVKTELTRDIFTDPIFTLNALQEYGPTFSSIENSIRKPHLFDYLRGIEFHTRLRPGYSGKDSFNYWSGNYVETRPSIGSNDTITSPFYGDKSIEPIQKLSFDGQKVYRTIANTDIAAFPDGKIYFGVTKVDFSQYDDQKNETSTQTYDSKRYNGYLGAQDSIDQLPPETTDEPLEKAYSHQLNYAECFLMQDRRGTIPFFTWTHRSVDFFNTIDAEKITQLPVVKAYALSSGASIIEGPGFTGGNLLFLKESSNSIAKFKVTLNSAALLQRYRVRIRYASTTNLRLFVQNSNNDFLVIYINKTMNIDGDLTYQTFDFATSNSNMGFSGDTNDFIIGAESFVSNEKIYIDKIEFIPVQ", "values": [{"measurement": "Kd", "setting": "[1]", "value": 7.35, "unit": "nM"}, {"measurement": "binding site concentration Bmax", "setting": "[1]", "value": 0.55, "unit": "pmol/mg BBMV"}, {"measurement": "percent of the total binding displaced", "setting": "[3]", "value": "> 20", "unit": "%"}]}
